Assay results: patent publication US20140072613A1, “Compositions and Methods for Treating Cutaneous Scarring” (priority 2012, published 2014)

Tests used:
266 human kinases [1] = target: T1, 266 human kinases (Homo sapiens, UniProt Q8IW41); assay: biochemical; assay type: biochemical; conditions: PRAK(h); 100 μM
T1 sequence (Q8IW41 1-473): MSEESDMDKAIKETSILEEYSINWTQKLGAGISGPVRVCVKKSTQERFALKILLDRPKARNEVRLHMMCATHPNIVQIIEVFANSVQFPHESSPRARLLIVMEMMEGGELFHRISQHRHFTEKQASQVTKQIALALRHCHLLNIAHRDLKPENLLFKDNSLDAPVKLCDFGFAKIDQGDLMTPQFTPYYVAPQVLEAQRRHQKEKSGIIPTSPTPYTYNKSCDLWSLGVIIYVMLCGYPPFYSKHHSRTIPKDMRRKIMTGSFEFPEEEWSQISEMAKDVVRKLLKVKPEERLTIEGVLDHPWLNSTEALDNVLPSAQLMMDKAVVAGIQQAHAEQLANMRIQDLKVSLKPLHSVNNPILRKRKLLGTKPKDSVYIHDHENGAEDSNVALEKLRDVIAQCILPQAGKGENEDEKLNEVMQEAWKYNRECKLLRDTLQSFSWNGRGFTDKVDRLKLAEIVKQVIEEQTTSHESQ
How it was run: (§1)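 Radiometric filter-binding format: a positively charged substrate takes up radiolabelled phosphate from ATP unless the kinase is inhibited, then is captured on a negatively charged filter membrane. Counts from scintillation are expressed relative to a 100% activity control.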

266 human kinases [2] = target: T2, 266 human kinases (Homo sapiens, UniProt O14920); assay: biochemical; assay type: biochemical; conditions: IKKβ(h); 100 μM
T2 sequence (O14920 1-756): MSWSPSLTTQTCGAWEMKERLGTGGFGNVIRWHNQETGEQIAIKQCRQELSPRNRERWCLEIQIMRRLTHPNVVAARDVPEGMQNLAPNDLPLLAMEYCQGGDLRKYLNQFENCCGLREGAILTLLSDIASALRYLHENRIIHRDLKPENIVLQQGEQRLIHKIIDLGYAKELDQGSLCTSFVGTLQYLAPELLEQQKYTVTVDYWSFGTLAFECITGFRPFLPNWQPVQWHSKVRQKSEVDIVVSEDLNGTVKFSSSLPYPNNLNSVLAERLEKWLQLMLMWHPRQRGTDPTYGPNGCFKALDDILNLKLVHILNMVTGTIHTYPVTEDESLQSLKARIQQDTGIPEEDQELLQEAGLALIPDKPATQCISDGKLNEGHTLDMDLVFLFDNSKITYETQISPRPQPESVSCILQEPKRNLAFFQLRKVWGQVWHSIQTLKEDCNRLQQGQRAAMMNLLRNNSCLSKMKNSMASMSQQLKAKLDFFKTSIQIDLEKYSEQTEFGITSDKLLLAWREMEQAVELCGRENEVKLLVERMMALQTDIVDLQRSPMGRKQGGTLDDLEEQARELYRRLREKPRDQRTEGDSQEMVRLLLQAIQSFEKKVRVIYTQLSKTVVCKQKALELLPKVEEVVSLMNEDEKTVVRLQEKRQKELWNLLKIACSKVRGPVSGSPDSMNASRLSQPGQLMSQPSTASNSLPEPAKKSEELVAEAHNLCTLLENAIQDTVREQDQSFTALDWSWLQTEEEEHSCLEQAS
How it was run: as §1

For “HRRIKAWLKKIKALARQLGVAA (mammal) [MMI-0500]”, the “% activity” value (266 human kinases [1]) was 95% and the “% activity” value (266 human kinases [2]) was 71%.
